In patent publication US20230416357A1 (UCB, published 2023):
Like-named read-outs stand apart in the source and are kept apart here.

B1: rabbit 11041 Fab (Fab, V domains shown)
VH: QSVEESGGRLVTPGTPLTLTCTVSGFSLSSYAMIWVRQAPGEGLEWIGIIDIDGSTYYASWAKGRFTISRTSTTVDLKITSPTTGDTATYFCARDRFVGVDIFDPWGPGTLVTVSS
VL: AVVLTQTASPVSAPVGGTVTIKCQASEDIYTNLAWYQQKPGQPPKLLIYWASTLASGVPSRFKGSGSGTEFTLTISDLECADAATYYCQACVYGNSADSRYTFGGGTEVVVK
B2: 11041gL13gH14 Fab (Fab, V domains shown)
VH: EVQLVESGGGLVQPGGSLRLSCAVSGFSLSSYAMIWVRQAPGKGLEWIGIIDIEGSTYYASWAKGRFTISRDNSKNTVYLQMNSLRAEDTAVYYCARDRFVGVDIFDPWGQGTLVTVSS
VL: AVQLTQSPSSLSASVGDRVTITCQASEDIYTNLAWYQQKPGKAPKLLIYWASTLASGVPSRFSGSGSGTDFTLTISSLQPEDFATYYCQASVYGNAADSRYTFGGGTKVEIKR
notes: Humanized Fab; also called VR11041

Tests used:
Human IL22 [1] = biological target: T1, Human IL22 (human, UniProt Q9GZX6 34-179); assay: cell-based or functional assay
T1 sequence: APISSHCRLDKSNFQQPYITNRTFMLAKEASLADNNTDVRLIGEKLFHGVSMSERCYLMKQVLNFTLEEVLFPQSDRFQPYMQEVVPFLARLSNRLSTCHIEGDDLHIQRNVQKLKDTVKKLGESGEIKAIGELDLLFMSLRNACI

Human IL22 [2] = biological target: T1, Human IL22; assay: cell-based or functional assay; remark: listed apart in the source
Human IL22 [3] = biological target: T1, Human IL22; assay: SPR Biacore 8K; single experiment
Human IL22 [4] = biological target: T1, Human IL22; assay: SPR Biacore T200; antibody captured on anti-human Fab (280 RU), IL22 injected at 20 nM
Human IL22 [5] = biological target: T1, Human IL22; assay: cell-based or functional assay; remark: listed apart in the source

Binder	IC50 (M), Geomean; COLO205 IL-10 release assay (Human IL22 [1]) [M]	IC50 (read off the curve), inhibition of IL-22-induced S100A7 release from human primary keratinocytes (NHEK) (Human IL22 [2]) [nM]	Kd (Human IL22 [3]) [nM]	IL22 Binding at 20 nM (RU) (Human IL22 [4])	IC50 (M), Geomean; COLO205 IL-10 release assay (Human IL22 [5]) [M]
B1	5.68e-11	–	–	–	–
B2	–	~10	< 0.1	40	4.27e-11
